From PMC6009593

Molecular target: Mre11 (PfuMR complex);Rad50 (PfuMR complex) (Pyrococcus furiosus;Pyrococcus furiosus, UniProt Q8U1N9;P58301 1-426;1-882, |)
Experiment: EMSA

Sequence of Mre11 (PfuMR complex);Rad50 (PfuMR complex) (P58301 whole entry, one chain of several): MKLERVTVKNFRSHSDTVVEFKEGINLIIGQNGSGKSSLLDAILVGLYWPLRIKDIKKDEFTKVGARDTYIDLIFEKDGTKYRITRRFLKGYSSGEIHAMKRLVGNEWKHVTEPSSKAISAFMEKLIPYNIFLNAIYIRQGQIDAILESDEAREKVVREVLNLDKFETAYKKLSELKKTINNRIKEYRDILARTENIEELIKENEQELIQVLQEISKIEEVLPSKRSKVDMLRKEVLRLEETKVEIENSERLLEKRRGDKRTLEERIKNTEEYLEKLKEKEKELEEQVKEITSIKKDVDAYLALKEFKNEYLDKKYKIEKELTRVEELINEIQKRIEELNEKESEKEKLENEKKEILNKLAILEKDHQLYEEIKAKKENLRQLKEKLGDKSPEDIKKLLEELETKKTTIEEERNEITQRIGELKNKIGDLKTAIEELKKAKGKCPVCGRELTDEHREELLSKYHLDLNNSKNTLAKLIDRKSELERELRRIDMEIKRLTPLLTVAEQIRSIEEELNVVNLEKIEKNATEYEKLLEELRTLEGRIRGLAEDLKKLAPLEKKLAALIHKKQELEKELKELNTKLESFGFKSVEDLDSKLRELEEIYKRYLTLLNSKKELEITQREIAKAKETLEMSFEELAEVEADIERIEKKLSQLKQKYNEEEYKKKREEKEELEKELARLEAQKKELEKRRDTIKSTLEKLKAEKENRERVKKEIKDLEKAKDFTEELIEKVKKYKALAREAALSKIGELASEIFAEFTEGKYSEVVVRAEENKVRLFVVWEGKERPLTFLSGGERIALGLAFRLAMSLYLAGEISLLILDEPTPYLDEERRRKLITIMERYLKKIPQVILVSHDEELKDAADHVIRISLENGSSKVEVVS

B1: S50/50s (dsDNA)
DNA 1: CTGCAGGGTTTTTGTTCCAGTCTGTAGCACTGTGTAAGACAGGCCAGATG
DNA 2: CATCTGGCCTGTCTTACACAGTGCTACAGACTGGAACAAAAACCCTGCAG
modifications: phosphorothioate bonds at the last 5 linkages of the 3' end of strand 2 (CCCsTsGsCsAsG)
**Q.** Does B1 bind?
**A.** binds
